The nanobody polyreactivity screen of Harvey et al. (2022)

Assay: yeast display, Sf9 membrane polyspecificity reagent, FACS + sequencing; frameworks hold sequencing errors
Procedure, shortened: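 After 36–48 hours of galactose induction, yeast (Saccharomyces cerevisiae BJ5465) displaying a synthetic nanobody library were stained at 4 °C for 1 hour with 10% biotinylated, detergent-solubilized Sf9 membrane reagent. Streptavidin microbeads enriched the stained cells before FACS sorting into low and high (top ~1%) gates on anti-HA and streptavidin fluorescence. Each clone's polyreactivity label reflects its gate of origin.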

Sequence	polyreactivity (PSR sort gate)
QVQLVESGGGLVQAGGSLRLSCAASGFNFWRYAMGWYRQAPGKERELVAVITWSGTRTYYADSVKGRFTISRDNAKNTVYLQMNSLKPEDTAVYYCAALYYGFRLTYGYDYWGQGTQVTVSS	high polyreactivity
QVQLVESGGGLVPAGGSLRLSCAASGRTFYTNSMGWYRQAPGKERELVAAITYSGGSTYYADSVKWRFTISRDNAKNTVYLHMNSLKPEDTAVYYCAADYRAPLDYWGQGTQVTVSS	low polyreactivity
QVQLVESGGGLVQAGGSLRLSCAASGFIFNLYAMGWYRQAPGKERELVAVISGSGVRTYYADSVKGRFTISRDNAKNTVYLQMNSLKPEDTAVYYCAARTYGGYEYWGQGTQVTVSS	high polyreactivity
QVQLVESGGGLVQAGGSLRLSCAASGRIFYTNAMGWYRQAPGKERELVAAIKWNGGRTYYADSVKGRFTISRDNAKNTVYLQMNSLKPEDTAVYYCAAGAPVDPWYSGLVVLDGMDYWGQGTQVTVSS	low polyreactivity
QVQLVESGGGLVHAGGSLRLSCAASGRIFKNYVMGWYRQAPGKERELVAGISSSGGSTYYADSVKGRFTISRYNAKNTVYLQMNSLKPEDTAVYYCAADYTFAYYNFKMDYWGQVTQVTVSS	low polyreactivity
QVQLVESGGGLVQAGGSLRLSCAASGRTFGYNAMGWYRQAPGKERELVATITWNGGRTYYADSVKGRFTISRDNAKNTVYLQMNSLKPEDTAVYYCAKGYPIIGRHGHWGQGTQVTVSS	high polyreactivity
QVQLVESGGGLVQAGGSLRLSCAASGITFLGYVMGWYRQAPGKEREFVADITESGGRTYYADSVKGRFTISRDNAKNTVYLQMNSLKPEDTAVYYCAAELSYWGYYYSFDYWGQGTQVTVSS	low polyreactivity
QVQLVESGGRLVQAGGSIRLSCAASGGIFTAYAMGCYRQAPGKEREFVAGIDRSGGRTYYADSVKGRFTISRDNAKNNVYLQMNSLKPEDTAVYYCYARGYVYQNQLYYYWGQGSQVTVSS	high polyreactivity
QVQLVESGGGLFQAGGSLRLSCAASGSIFWSYDMGWYRQAPGKERELVATITSGDSTYYADSVKGRFTISRDNAKNTVYLQMNSLKPEDTAVYYCAAGTYYRRTYWHREYDYWGQGTQVTVSS	low polyreactivity
QVQLVESGGGLVQAGGSLRLSCAASGSTFSYYAMGWYRQAPGKERELVAAISWSGGSTYYADSVKGRFTISRDNAKNTVYLQMNSLKPEDTAVYYCAIVTRKTYYVGNGDYWGQGTQVTVSS	high polyreactivity
QVQLVESGGGLVQAGGSLRLSCAASGRIFGRYAMGWYRQAPGKERELVATITSGGSTYYADSVKGRFTISRDNAKNTDYLQMNSLKPEDTAVYFCAAVHRGYFLAFYYWGQGTQVTVSS	high polyreactivity
QVQHVESGGGLVQAGGSRRLSCAASGRTFREYAMGWYRQAPGKERELVAAISDSGDSTYYADSVKGRFTISRDNAKNTVNLQMNSLKPVHTAVYYCAADYYDYEYDYWGQGTQVTVSS	low polyreactivity
QVQLVESGGGLVQAGGSLRLSCAASGRIFRQNAMGWYRQAPGKERELVAAISRSGGSTYYADSVKGRFTISRDNAKNTVYLQMNSLNPEDTAVYYCNRDYQSQRTYPRRYDYWGQGTQVTVSS	low polyreactivity
QVQLVESGGGLVQAGGSLRLSCAASGSIFDVNTMGWYRQAPGKERELVAAITNGDRTNYADSVKGRFTISRDNAKNTVYLQMNSLKPEDTAVYYCAADSVLDRPVLYLWPWYLGDYWGQGTQVTVSS	low polyreactivity
QVQLVESGGGLVQAGGSLRLSCAASGFIFSGNAMGWYRQAPGKERELVAAISGRGGRTYYADSVKGRFTISRDNAKNTVYLQMNSLKPEDTAVYYCAADNPYLGRKFDYWGQGTQVTVSS	high polyreactivity
QVQLVESGGGLVQAGGSLRLSCAASGLTFFGNAMGWYRQAPGKERELVATISSGGGTSYADSVKGRFTISRDNAKNTVYLQMNSLKPEDTAVYYCAADIVEEFDYWGQGTQVTVSS	low polyreactivity
QFQLVESGGGLDQAVGSLRLSCAASGSIFYPNVMGGYREAPGKEREMVAAIRTSGGSTYYADSVQGRFTISRETAKNTVYLQMNSLKPEDTAVYYCAAKRTGNGYPRSGYYRYEYWGHGTQVTVSS	high polyreactivity
QVQLVESGGGLVQAGGSLRLSCAASGIIFTPYNMGWYRQAPGKERELVAASTGSGGSTYYADSVKGRFTISRDNAKNTVDLQMNSLKPEDTAVYYCAAYKQYRFYRYDYWGQGTQVTVSS	high polyreactivity
QVQLVESGGGLVQAGGSLRLSCAASGITFYKYVMGWYRQAPGKETELVAAISSVGSTYYADSVKGRFTISRDNAKNTVYLQMNSLKPEDTAVYYCAAKYWKCYHYGFGYWGQGTQVTVSS	high polyreactivity
QVQLVESGGGLVQAGGSLRLSCAASGRIFTRNVMGWYRQAPGKERELVARINSGGRTYYADSVKGRFTISRDNAKNTVYLQMNSLKPEDTAVYYCAVPFYWYSPMDSWGQGTQVTVSS	high polyreactivity
QVQLVESGGGLVQAGGSLRLSCAASGSIFAPYAMGWYRQAPGKERELVAAISSSGGSTYYADSVKGRFTISRDNAKNTLYLQMNSLKPEDTAVYYCAAETYHGLYDYWGQGTQVTVSS	low polyreactivity
QVQLVESGGGLVQAGGTLRLSCAASGRTFAYNAMGWYRQAPGKERELVAAITWSGDSTYYADSVKGRFTISRDNAKKTVYLQRNSLKPEDTAVYYCAADYFGGPSYEFDYWGQGTQVTVSS	low polyreactivity

Sequence	polyreactivity (PSR sort gate)
QVQLEESGGRLVQAGGRLRLNCAASGLTFNTNSMGWYRKAPGKERELVAAISRGGGSTYYADSVKGRFTISRDNAKNSVYLQMNSLKPEDTAVYYCNAEKSASYLLYDYWGQGTLVTVSS	high polyreactivity
QVQLVESGGGLVQAGGSLRLSCAASGYIFEYYAMGWYRQAPGKERELVAAISVGGGSTYYADSVKGRFTISRDNAKNTVYLQMNSLKPEDTAVYYCAAVQLYQKHQITYVAHEYWGQGTQVTVSS	low polyreactivity
QVQLVESGGGLVQAGGSLRLSCAASGFNFVGNAMGWYRQAPGKERELVADITGSDGSTYYADSVKGRFTISRDNAKNTVYLQMNSLKPEDTAVYYCAASPPYKLVWWRRMDYWGQGTQVTVSS	low polyreactivity
QVQLVESGGGLVQAGGSLRLSCAASGFIFSTYAMGWYRQAPGKERELVSAISCSTGSTYYADSVKGRFTISRDNAKNTVYLQMNSLKPEDTAVYYCNALRRPSTEGRDYWGQGTQVTVSS	high polyreactivity
QVQLVESGGGLVQAGGSLRLSCAASGTIVGYAMGWYRQAPGKERELVASNSWRVGSTYYADSVKGRFTISRDNAKNTVYLQMISLKPEDTAVYYCNAASYVFLYYPGGIYRDDYWGQGTQVTVSS	low polyreactivity
QVQRVESGGGLVQAGGSLRLSCAPSGRTFGYYAMGWYRQAPGKERELVAAISRGGRTNYADSVKGRFTISRDNAKNTVYLQMNSLQPEDTAVYYCAKSGTIPRYTASYSLLDYWGQGTQVTVSS	low polyreactivity
QVQLVESGGGLVQAGGSLRLSCAASGITFNKYAMGWYRQAPGKERELVAAISSRGGSTYYADSVKGRFTISRDNAKNTVYLQMNSLKPEDTAVYYCNADFYRASSNFDYWGQGTQVSVSS	high polyreactivity
QVQLVESGGGLVQAGGSLRLSCAASGRTFDANAMGWYRPAPGKERELVAAISSDGSTNYADSVKGRFTISRDNAKNTVYLQMNSLKPEDTAVYYCATDGKPLIRYDYDYWGQGTQVTVSS	high polyreactivity
QVQLVESGGGLVQAGGSLRLSCAASGSIFGTYAMGWYRQAPGKEREFVAAISWADGSTYYADSVKGRFTISRDNAKNTVYLQMNSLNPEDTAVFYCAVRRVGSIYIDRYIYVVADYDYWGQGTQVTVSS	low polyreactivity
QVQLVESGGGLVQAGGSLRLSCAASGRIFAFYAMGWYRQAPGKVREFVAAITKSGGSTYYADSVKGRFTISRDNAKNTVYLQMNSLKPEDTAVYYCAADYWYPTTYYLYDYWGQGTQVTVSS	low polyreactivity
QVQLVESGGGLVQAGGSLRLSCSDSGSTFWLNAMGWYRQPPGKEREYVAAITWSSGSTYYADSVKGSFTISRDNAKNTVYLQMNSLKPEDTAVYYCNADYYFTSYEYEYWGQGTQVTVSS	low polyreactivity
QVQLVESGGGLFQAGGSLRLSCAASGSIFSKYAMAWYRQAPGKERELVAAITLNGGSTYYADSVKGRFTISRDNAKNTVYLQMNSLNPEDTAVYYCAKSDRPWWGYYYQFDYWGQGTQVTVSS	low polyreactivity
QVQLVESGGGLVQAGGSLRLSCAASGFTFAYYAMGWYRQAPGKERELVAAITGSGGRTYYADSVKGRFTISRDNAKNTVYLQMNSLKPEDTAVYYCAALTGPYKAQVHGGHTPLDYWGQGTQVTVSS	low polyreactivity
QVQLVESGGGLVQAGGSLRLSCAASGFIFGRYTMGWYRQAPGKERELVAAITYSGNTYYADSVKGRFTISRDKAKTTVYVQMNSLKPEDTALYYCNAYGANFRAFRNAYKYWGQGTQVTVSS	high polyreactivity
QVQLVESGGGLVQAGGSLRLSCAASGSIIYNNAMGWYRQAPGKERELVAAIRSTGTRTYYADSVKGRFTISRDNAKNTVYLQMNSLKPEDTAVYYCAVGDYGLWSYVYWGQGTQVTVSS	low polyreactivity
QVQLVESGGGLVQAGGSLRLSCAASGRTFYRYVMGWYRQATGKERELDADISRRGGRTYYADSVKGRFTISRDNAKNTVYLQMNSLKPEDTAVYYCAAESKYATSSPRRDYWGQGTQVTVSS	high polyreactivity
QVQLVESWGGLVQAGGSLRLSCAASGYTIPDNAMGWYRQAPGKEREWVATITSGASTYYADSVKGRFTSSRDNAKNTVYLQMNSLNPEDTAVYYFARDPWALGGIGSDQKYDYWGQGTQVTVSS	low polyreactivity
QVQLVESGGGLVQAGGSLRLSCAASGSTFKRYARGWYRQAPGKEREFVAGISSRGSRTYYADSVKGRFTISRDNAKNTVYLQMNSLKPEDTAVYYCAVSGNHVSPPYGYWGQGTQVTVSS	high polyreactivity
QVQLVESGGGLVQAGGSLRLSCAASGRTLRQYAMGWYRQAPGKERELVAAISRGGSTTYADSVKGRFTISRDNAKNTVYIQMNSLKPEDTAVYYCAAVSSKGNRHEYDYWGQGTQVTVSS	low polyreactivity
QVQLVESGGGLVQAGGSLRLSCAASGSISVVNMGWYRQAPGKERELVASITSSGSTTYADSVKGRFTISRDNAKNTVYLQMNSLKPEDTAVYYCAAVRCRSQPYWYHSMDHWGQGTQVTVSS	low polyreactivity
QVQLVESGGGLVQAGGSLRLSCAASGFIFGWNAMGWYREAPGKERELVAALTRTGSTYYADSVKGRFTISRDNAKNTVYLQMNSLKPEDTAVYYCAASYGSRSTRTEGYWGQGTQVTVSS	low polyreactivity
